Assay [1] deals with Recombinant Human DLL4 (R&D Systems Cat#1506-D4/CF) (human) (UniProt Q9NR61). As to the kind of experiment: MSD ECL multi-spot plate; Fab […]; blank spot 149.
Assay [2] addresses rHuman EGF R/Fc Chimera, CF (R&D Systems Cat#344-ER) (human) (UniProt P00533). Briefly: MSD ECL multi-spot plate; Fab […]; blank spot 149.
In assay [3] the target is rHuman Notch-1/Fc Chimera, CF (R&D Systems Cat#3647-TK) (human) (UniProt P46531). Briefly: MSD ECL multi-spot plate; Fab […]; blank spot 149.
Assay [4] deals with Recombinant Human DLL4 (R&D Systems Cat#1506-D4/CF) (human) (UniProt Q9NR61). Briefly: MSD ECL multi-spot plate; Fab 1570 nM; blank spot 866.
The target of assay [5] is rHuman EGF R/Fc Chimera, CF (R&D Systems Cat#344-ER) (human) (UniProt P00533). The assay is described as above.
In assay [6] the target is rHuman Notch-1/Fc Chimera, CF (R&D Systems Cat#3647-TK) (human) (UniProt P46531). The assay is described as above.
The target in assay [7] is Recombinant Human DLL4 (R&D Systems Cat#1506-D4/CF) (human) (UniProt Q9NR61). Briefly: MSD ECL multi-spot plate; Fab 98.1 nM; blank spot 210.
The target in assay [8] is rHuman EGF R/Fc Chimera, CF (R&D Systems Cat#344-ER) (human) (UniProt P00533). The assay is described as above.
Assay [9] deals with rHuman Notch-1/Fc Chimera, CF (R&D Systems Cat#3647-TK) (human) (UniProt P46531). The description is as above.
The target in assay [10] is Recombinant Human DLL4 (R&D Systems Cat#1506-D4/CF) (human) (UniProt Q9NR61). Briefly: MSD ECL multi-spot plate; Fab 392.5 nM; blank spot 338.
Assay [11] deals with rHuman EGF R/Fc Chimera, CF (R&D Systems Cat#344-ER) (human) (UniProt P00533). The description is as above.
Assay [12] addresses rHuman Notch-1/Fc Chimera, CF (R&D Systems Cat#3647-TK) (human) (UniProt P46531). The description is as above.
Assay [13] concerns the target rHuman EGF R/Fc Chimera, CF (R&D Systems Cat#344-ER) (human) (UniProt P00533). Briefly: ECL (MSD multi-spot), Fab 14.5 nM; blank 117.
Assay [14] has as its target rHuman IGF-1 sR (IGF-1 sR), CF (R&D Systems Cat#391-GR) (human) (UniProt P08069). As to the kind of experiment: ECL (MSD multi-spot), Fab 14.5 nM; blank 117.
In assay [15] the target is rHuman P-Cadherin/Fc Chimera, CF (R&D Systems Cat#861-PC) (human) (UniProt P22223). Briefly: ECL (MSD multi-spot), Fab 14.5 nM; blank 117.
For assay [16], the target named is rHuman EGF R/Fc Chimera, CF (R&D Systems Cat#344-ER) (human) (UniProt P00533). As to the kind of experiment: ECL (MSD multi-spot), Fab 58.1 nM; blank 225.
In assay [17] the target is rHuman IGF-1 sR (IGF-1 sR), CF (R&D Systems Cat#391-GR) (human) (UniProt P08069). Briefly: ECL (MSD multi-spot), Fab 58.1 nM; blank 225.
For assay [18], the target named is rHuman P-Cadherin/Fc Chimera, CF (R&D Systems Cat#861-PC) (human) (UniProt P22223). As to the kind of experiment: ECL (MSD multi-spot), Fab 58.1 nM; blank 225.
Assay [19] concerns the target rHuman EGF R/Fc Chimera, CF (R&D Systems Cat#344-ER) (human) (UniProt P00533). Briefly: ECL (MSD multi-spot), Fab 930 nM; blank 1206.
In assay [20] the target is rHuman IGF-1 sR (IGF-1 sR), CF (R&D Systems Cat#391-GR) (human) (UniProt P08069). Briefly: ECL (MSD multi-spot), Fab 930 nM; blank 1206.
The target in assay [21] is rHuman P-Cadherin/Fc Chimera, CF (R&D Systems Cat#861-PC) (human) (UniProt P22223). As to the kind of experiment: ECL (MSD multi-spot), Fab 930 nM; blank 1206.
Assay [22] deals with rHuman EGF R/Fc Chimera, CF (R&D Systems Cat#344-ER) (human) (UniProt P00533). Briefly: ECL (MSD multi-spot), Fab 232.5 nM; blank 460.
Assay [23] deals with rHuman IGF-1 sR (IGF-1 sR), CF (R&D Systems Cat#391-GR) (human) (UniProt P08069). Briefly: ECL (MSD multi-spot), Fab 232.5 nM; blank 460.
Assay [24] concerns the target rHuman P-Cadherin/Fc Chimera, CF (R&D Systems Cat#861-PC) (human) (UniProt P22223). Briefly: ECL (MSD multi-spot), Fab 232.5 nM; blank 460.

Turning to “Fab VH1-46_IGHD3-10*01_IGHJ4*01 & O1_IGKJ1*01”, the ECL signal in [1] came out at 339 ECL signal; in [2] it was 317 ECL signal; in assay [3], 434 ECL signal; in assay [4], 2700 ECL signal; in [5] it was 2480 ECL signal; in assay [6], 1640 ECL signal. Moreover, the ECL signal in [7] was 402 ECL signal; in [8], 4390 ECL signal; in assay [9], 313 ECL signal; in assay [10], 735 ECL signal; in [11] it was 744 ECL signal; in [12], 749 ECL signal.

On to “Fab VH1-46_IGHD6-13*01_IGHJ4*01 & O1_IGKJ1*01”, for which the ECL signal came to 357 ECL signal in [13]; 234 ECL signal in [14]; 277 ECL signal in [15]; 444 ECL signal in assay [16]; 343 ECL signal in assay [17]; 478 ECL signal in assay [18]. Further, the ECL signal in assay [19] worked out at 3110 ECL signal; in assay [20], 1920 ECL signal; in assay [21], 2440 ECL signal; in assay [22] it was 803 ECL signal; in assay [23], 569 ECL signal; in assay [24], 655 ECL signal.

The values are drawn from patent publication US20120058906A1.
